Assays:
[1] = biological target: human insulin receptor isoform A (hIR-A) (human) (UniProt P06213); experiment: competitive radioligand binding (SPA), [125I]-A14-insulin, hIR-A membranes
[2] = biological target: human insulin receptor isoform B (hIR-B) containing a C9 epitope tag at the C-terminus (human) (UniProt P06213); experiment: cell-based or functional assay
[3] = biological target: human insulin receptor isoform B (hIR-B) containing a C9 epitope tag at the C-terminus (human) (UniProt P06213); experiment: competitive radioligand binding (SPA), [125I]-A14-insulin, hIR-B membranes

Ki [1]: 0.0041 µM | Receptor Phosphorylation EC50 [2]: 0.253 µM | Ki [3]: 0.0508 µM
Substance: IGF-1 (from UniProt P05019 49-118) (ligand)

Reference: patent US20170240614A1
